The results in this text go back to patent publication US20090202549A1.

The experiment deals with mouse IL-12 (p40/p35 heterodimer) (mouse) (UniProt P43432). Kind of experiment: cell-based or functional assay.
mouse IL-12 (p40/p35 heterodimer) (mouse), sequence (P43432 23-335, chain 1 of 2): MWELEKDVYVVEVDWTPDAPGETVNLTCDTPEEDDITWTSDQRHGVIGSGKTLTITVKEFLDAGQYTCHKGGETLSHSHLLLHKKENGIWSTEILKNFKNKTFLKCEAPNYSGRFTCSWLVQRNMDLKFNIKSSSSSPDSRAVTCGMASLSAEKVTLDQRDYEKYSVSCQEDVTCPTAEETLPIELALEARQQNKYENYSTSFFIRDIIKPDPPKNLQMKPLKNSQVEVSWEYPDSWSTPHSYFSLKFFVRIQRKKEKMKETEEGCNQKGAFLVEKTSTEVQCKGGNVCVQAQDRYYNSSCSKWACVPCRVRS
mouse IL-12 (p40/p35 heterodimer) (mouse), sequence (P43431 23-215, chain 2 of 2, further chain): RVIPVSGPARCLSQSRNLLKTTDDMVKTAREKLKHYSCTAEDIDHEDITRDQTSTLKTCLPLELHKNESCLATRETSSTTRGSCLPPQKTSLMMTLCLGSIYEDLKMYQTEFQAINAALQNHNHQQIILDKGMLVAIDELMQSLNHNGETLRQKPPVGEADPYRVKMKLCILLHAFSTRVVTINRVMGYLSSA

The substance “C17.8 (rat anti-mouse IL-12/IL-23p40, IgG2a) (antibody)” gave an in vitro neutralization of IL-12 (times (against the anti-p35 mAb)) of 5.
